Laboratory results: patent US10556936B2, “Immunogenic proteins and fragments thereof from allergenic mites” (ALK-ABELLÓ A/S, priority 2016, dated 2020)
Marks after values point to notes of the source that are not given here.

Experiments:
Type in all cases: cell-based, human
[1] = tested on: basophils in whole blood from HDM allergic donors; test: Basophil Activation Test (BAT); details: blood from HDM allergic individuals (n=14)
Experimental: Basophil Activation Test (BAT) was used as a predictive in vitro assay for indication of safety/immediate hypersensitivity reactions. The BAT assay is a widely used diagnostic test that is also used for evaluation of allergenicity of allergen derived components. In short: whole blood from HDM allergic donors was stimulated for 1 h with the proteins, and the increased expression of activation markers on the surface of basophils were measured by flow cytometry. The BAT test was carried out using different concentrations of the proteins and the allergens Der p 2 and Der p 1 was used as controls and tested in the same concentration rates.
(§1) This example relates to the further testing of immunogenicity of the proteins identified in Example 1. Their ability to react with IgE antibodies in HDM allergic individuals, to stimulate in vitro T cell proliferation of HDM allergic individuals and non-allergics, and to stimulate ex vivo cytokine production of HDM allergic individuals and non-allergics. The following tests were used: • Basophil Activation Test (BAT) was used as a predictive in vitro assay for indication of safety/immediate hypersensitivity reactions. BAT test was carried out using blood from HDM allergic individuals (n=14), and by use of different concentrations of test proteins or the major house dust mite allergens (Der p 1, Der f 1, Der p 2 or Der f 2, e.g. a concentration of 1, 10, 100 or 1000 ng/ml. • In vitro T cell reactivity determined in T cell lines obtained from HDM allergic individuals (n=30) and non-allergics (n=8): Determined by establishment of HDM specific T-cell lines according to standard methods. In short, PMBCs from HDM allergic donors were cultured for 3 weeks in the presence of house dust mite allergen extract. The responses to proteins at a concentration of 0.5 ug/ml or 2 ug/ml of the test protein or the major house dust mite allergens (Der p 1, Der f 1, Der p 2 or Der f 2) were assessed by proliferation in a standard 72 h T cell proliferation assay, as described in Henmar H et al., Clin Exp Immunol 2008; 153(3):316-23. […]. • Ex vivo stimulation of PBMC cells obtained from mite allergic patients (n=16) and non-allergics (n=6): Determined by measuring the production of the cytokines; IFN-gamma, IL-9, IL-10, IL-17 and IL-31 following stimulation with test protein in concentration up to 10 ug/ml. Freshly isolated PBMC 5×10^6/ml were cultured with a test protein for 5 days and cell supernatant were harvested and stored at −80° C. Cytokines of the supernatants were measured using ProcartaPlex Multiplex Immunoassays with MAGPIX Multiplex Reader according manufactory protocol.

[2] = tested on: T cell lines obtained from HDM allergic individuals and non-allergics; test: In vitro T cell proliferation test in T cell lines (Example 3); details: 0.5 or 2 ug/ml, 72 h; for % responders of in-vitro T cell proliferation test, Allergic: T cell lines from HDM allergic individuals (n=30); for % responders of in-vitro T cell proliferation test, Non-allergics: T cell lines from non-allergics (n=8)
Source text: as §1

[3] = tested on: PBMC cells obtained from mite allergic patients and non-allergics; test: Ex vivo stimulation of PBMC: cytokine production (IFN-gamma, IL-9, IL-10, IL-17, IL-31)
Source text: as §1

B1: A009: house dust mite protein; SEQ ID NO: 43 (Der f), 44 (Der p), 307 (Blo t) (protein)
chain: VVIKVENLPEQCDYTQCPKWSKDDINVHLVAHTHDDVGWLKTVEQYYYGLKNDIQRAGVQYILDTMIEELIRNKDRRFIYVEIAFFWKWWQEQNEEQRMIVKELVRTGQLEFINGGWSMPDEAATHYNSLIDQSTWGLRQLNDTFGRCGHPKVTWQIDPFGHSKEMANLYAQMGYDALFFARQDYQDRENRMSNRTLEHVWQGSDDLGEIGDIFTGMMFSGYGPIEFNWDITNGPEDAVVDNPESEEYNVPDKIRRFVEKAKYFGQFYATNHFMFPMGTDFQYTDAHTWFKNLDKLINAVNKAGKGVRAFYSTPSCYAHALYEQNRTWTTKTDDFFPYASDEHAYWTGYFTSRPAIKRMERIGNNLLQACKQLDVLADNNGRFEMNLTKMREAMGVMQHHDAVTGTEKQHVAFNYAKMLDSAMLQCRHIINESYKKLLPKSSTSEHEFCPYLNISSCPTTEMGESRIIYLYNPLGHRLINHTVRLPIKNGYYYRIQDQNNQSVPSVLVPIPEFVQKIPGRKSVATKELVFRVPVIEPLGITTMYMYVDKNEQPNSAIEIKGENPDDNDDKSKWLVLTKNLIVEFYSNGTISRISIDKLHQSISISNEFRLYHGAGGTGRHSGAYIFRPNEQKTFPVTNKIKSTFFIDRKYHIVQEVHQQFDSSFVGQIIRMDKYNDNVEFDFVVGPIPVNDQIGKEIIASYKTDLENDETFYTDANGRQMLRRRWNYRPSWKYNVQEPISGNYYPVNSRIAIRDEKQSLQMTIMTDRSQGGSLSPEQINGSIDIMIHRRLLHDDYFGVGEALNEPGVDGHGLVIRGKHLLLLNSIKQSASEHRPLAQQMFMEPIISFTSIESNKQAEKQSNQYIGLNNDLPSNVHLLTLEQWHSKRYLLRLEHFYQSNEDTELSKPVKLSLRHLFKSFEIIAVEELTLGANQPISSLKNRLHYRYNRPLEQRQQQQSSLLLDDPKIEGENFDIHLSPMQIRTFLIDIKRN
B1 was tested, and the “# of individuals of 14 with positive BAT test” value ([1]; 1 ng/ml) was 0, the “# of individuals of 14 with positive BAT test” value ([1]; 10 ng/ml) was 0 and the “# of individuals of 14 with positive BAT test” value ([1]; 100 ng/ml) was 0. The “# of individuals of 14 with positive BAT test” value ([1]; 1000 ng/ml) was 3, the “% responders of in-vitro T cell proliferation test, Allergic” value [2] was 36% and the “% responders of in-vitro T cell proliferation test, Non-allergics” value [2] was 63%. For the same molecule, the “% HDM allergic individuals with cytokine production in ex-vivo T cell assay IL-5” value [3] was 0%, the “% HDM allergic individuals with cytokine production in ex-vivo T cell assay IL-9” value [3] was 0% and the “% HDM allergic individuals with cytokine production in ex-vivo T cell assay IL-10” value [3] was 94%. For the same molecule, the “% HDM allergic individuals with cytokine production in ex-vivo T cell assay IL-13” value [3] was 6%, the “% HDM allergic individuals with cytokine production in ex-vivo T cell assay IL-17” value [3] was 19% and the “% HDM allergic individuals with cytokine production in ex-vivo T cell assay IL-31” value [3] was 0%. The “% HDM allergic individuals with cytokine production in ex-vivo T cell assay INF-g” value [3] was 19%, the “% non-allergic individuals with cytokine production in ex-vivo T cell assay IL-5” value [3] was 0% and the “% non-allergic individuals with cytokine production in ex-vivo T cell assay IL-9” value [3] was 0%. The “% non-allergic individuals with cytokine production in ex-vivo T cell assay IL-10” value [3] was 100%, the “% non-allergic individuals with cytokine production in ex-vivo T cell assay IL-13” value [3] was 0% and the “% non-allergic individuals with cytokine production in ex-vivo T cell assay IL-17” value [3] was 33%. For the same molecule, the “% non-allergic individuals with cytokine production in ex-vivo T cell assay IL-31” value [3] was 0% and the “% non-allergic individuals with cytokine production in ex-vivo T cell assay INF-g” value [3] was 50%.

B2: A010: house dust mite protein; SEQ ID NO: 41 (Der p), 42 (Der f), 308 (Blo t) (protein)
chain: DSLKCSSIRNEDRIDCNPDPPISKNVCEQRGCCWKTAGNDLKNLSSKVLPNLNVPYCYYGENYIGYKIEKHSKNLIQLKRNRSSGFARDIENINIEIHELNDKVIRLKFIDANKKRYEVPIPKLNLPSTTSSSSSNSRLYSVELDGSHLIVRRRETNQSIFDINLAYMVYSDQLIHVTSRLPSKYIYGLGEHRAPFRKNTNWKRYTQWTRDQYPVTDKALYGNHPFYLTVEDESPKKSASGVFLFNSNAMDIITQPSPAITFRTIGGILDFFVFFGPKPEDVISQYQNLIGLPAMPPFWSLGYQQCRYGYNNFTNLNTTYTRNRAVGIPMDVQWTDIDAFNSNNDFTYDHKRFKELPDFINNVLHPNGQKFIPMFDCGISSGEPAGSYKPFDSGVELDVFVKNSSNKIFRGKVWNGKSTVWPDFSHPNATEYWMDMFAEYHKTIAFDGAWLDMNEPSNFYNGEEHGCPESEIENPQYVPGMTDDSLTLRHKTLCMTARHYNDQLHYNLHNLYSLSMAMATNAALTKLNKRPFIISRATAPGHGHWAYHWNGDILSDWSSMRWTIPSILNFNMFGIPMVGADICGFGGNTAEELCIRWYQLGAFYSFARNHNDIHSIDQDPAALGESVIRAARSSLQYRYRFLAHLYTLFYHVHKNGGTVLRPMFFEFPHDEHTYEIETQFMWGDSVLIAPILYPNQTQHKIYLPKGTWYNRKVSFESQGQYITMNDSYDDIDYVFVRGGSIIPTQEPHDNTELMKTKDFLLIVALDNQTSYAKGSLYWDSGDSLNPDKTGHYNFYNFDAVNNTLTIQSQWLGYQTTQNINFINILGVPKLPTSFKLNGHVSDPRIIRFNYDEQTNILTVETKLPIYNQDSSSHDRIHYQFEWIME
B2 was tested, and the “# of individuals of 14 with positive BAT test” value ([1]; 1 ng/ml) was 0, the “# of individuals of 14 with positive BAT test” value ([1]; 10 ng/ml) was 0 and the “# of individuals of 14 with positive BAT test” value ([1]; 100 ng/ml) was 0. For the same molecule, the “# of individuals of 14 with positive BAT test” value ([1]; 1000 ng/ml) was 1, the “% responders of in-vitro T cell proliferation test, Allergic” value [2] was 100* % and the “% responders of in-vitro T cell proliferation test, Non-allergics” value [2] was 14%. The “% HDM allergic individuals with cytokine production in ex-vivo T cell assay IL-5” value [3] was 31%, the “% HDM allergic individuals with cytokine production in ex-vivo T cell assay IL-9” value [3] was 13% and the “% HDM allergic individuals with cytokine production in ex-vivo T cell assay IL-10” value [3] was 38%. For the same molecule, the “% HDM allergic individuals with cytokine production in ex-vivo T cell assay IL-13” value [3] was 44%, the “% HDM allergic individuals with cytokine production in ex-vivo T cell assay IL-17” value [3] was 13% and the “% HDM allergic individuals with cytokine production in ex-vivo T cell assay IL-31” value [3] was 6%. The “% HDM allergic individuals with cytokine production in ex-vivo T cell assay INF-g” value [3] was 0%, the “% non-allergic individuals with cytokine production in ex-vivo T cell assay IL-5” value [3] was 0% and the “% non-allergic individuals with cytokine production in ex-vivo T cell assay IL-9” value [3] was 0%. The “% non-allergic individuals with cytokine production in ex-vivo T cell assay IL-10” value [3] was 0%, the “% non-allergic individuals with cytokine production in ex-vivo T cell assay IL-13” value [3] was 0% and the “% non-allergic individuals with cytokine production in ex-vivo T cell assay IL-17” value [3] was 0%. For the same molecule, the “% non-allergic individuals with cytokine production in ex-vivo T cell assay IL-31” value [3] was 0% and the “% non-allergic individuals with cytokine production in ex-vivo T cell assay INF-g” value [3] was 0%.
